{"source": "paper PMC5593925", "key": {"[1]": {"target": "plasminogen (affinity column for M. pneumoniae lysate; microscale thermophoresis)", "experiment": "MST; fluorescently labelled host protein, Ef-Tu unlabelled; 40%, 60% and 80% MST power, 30 s"}, "[2]": {"target": "actin (UniProt P68135)", "experiment": "MST"}, "[3]": {"target": "fetuin (UniProt P12763)", "sequence (P12763 19-359)": "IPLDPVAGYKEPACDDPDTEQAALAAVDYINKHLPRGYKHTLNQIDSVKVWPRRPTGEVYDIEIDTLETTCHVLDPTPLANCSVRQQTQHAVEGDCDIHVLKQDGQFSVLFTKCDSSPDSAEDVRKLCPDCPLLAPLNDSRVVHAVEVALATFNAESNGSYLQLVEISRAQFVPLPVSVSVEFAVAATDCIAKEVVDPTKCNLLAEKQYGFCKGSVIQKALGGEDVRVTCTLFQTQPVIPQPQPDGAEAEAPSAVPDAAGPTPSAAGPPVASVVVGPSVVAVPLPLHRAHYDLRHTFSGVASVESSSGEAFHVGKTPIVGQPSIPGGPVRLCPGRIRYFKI", "experiment": "MST; fluorescently labelled host protein, Ef-Tu unlabelled; 40%, 60% and 80% MST power, 30 s"}}, "data": [{"substance": "recombinant Elongation factor Tu of Mycoplasma pneumoniae (from UniProt P23568 1-394) (natural protein)", "values": [{"measurement": "Kd", "setting": "[1]", "result": 933, "unit": "nM"}, {"measurement": "Kd", "setting": "[2]", "result": 19, "unit": "nM"}]}, {"substance": "recombinant Elongation factor Tu of Mycoplasma pneumoniae (from UniProt P23568 1-394) (natural protein; other documents disagree on this pair)", "values": [{"measurement": "Kd", "setting": "[3]", "result": 53, "unit": "nM"}]}]}
